Experimental data from paper PMC5686944.

Target: plasminogen (UniProt P00747)
UniProt P00747, sequence (P00747 20-810): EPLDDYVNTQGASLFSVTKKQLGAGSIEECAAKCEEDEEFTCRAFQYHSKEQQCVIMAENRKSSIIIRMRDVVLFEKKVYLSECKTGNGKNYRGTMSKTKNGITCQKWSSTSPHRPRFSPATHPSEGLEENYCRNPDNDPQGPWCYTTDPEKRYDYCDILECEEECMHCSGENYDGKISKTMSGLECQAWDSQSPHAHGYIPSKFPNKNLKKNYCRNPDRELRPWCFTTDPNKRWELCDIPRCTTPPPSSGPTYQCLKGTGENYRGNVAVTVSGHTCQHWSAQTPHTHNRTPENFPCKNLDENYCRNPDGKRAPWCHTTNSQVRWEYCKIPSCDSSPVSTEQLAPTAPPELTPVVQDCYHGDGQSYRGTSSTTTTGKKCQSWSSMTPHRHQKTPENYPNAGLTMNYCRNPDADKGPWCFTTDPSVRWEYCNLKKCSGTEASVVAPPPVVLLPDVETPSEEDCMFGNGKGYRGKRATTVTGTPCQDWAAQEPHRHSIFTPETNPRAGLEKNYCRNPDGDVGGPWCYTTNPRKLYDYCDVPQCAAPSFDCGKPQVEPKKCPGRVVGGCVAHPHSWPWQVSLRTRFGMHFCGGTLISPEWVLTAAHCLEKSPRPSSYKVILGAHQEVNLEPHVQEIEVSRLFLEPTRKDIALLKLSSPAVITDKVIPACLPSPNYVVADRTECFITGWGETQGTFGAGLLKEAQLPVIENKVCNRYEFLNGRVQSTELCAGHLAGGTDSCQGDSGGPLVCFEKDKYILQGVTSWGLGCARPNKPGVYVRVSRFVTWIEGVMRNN

Substance: wild-type staphylokinase (Sak) (natural protein)
- fibrin plate assay, diameter of halo pattern (5.0 x 10^3 IU unmodified Sak, 310 K, 20 h): 25.4 mm
